According to patent publication US20050137130A1, “Medical treatment” (priority 2001, published 2005):

Test system: activated human CD4+ T cells
Assay: Cytokine production (ELISA) by human CD4+ T cells stimulated with anti-CD3/CD28 beads and Delta1 beads, with added soluble protein
Type: cell-based
Details: increasing amounts of soluble protein in culture medium, 3 days
Description: M450 Streptavidin Dynabead™ magnetic beads (Dynal, USA) were coated with an anti-human-IgG4 biotinylated monoclonal antibody (BD Bioscience, 555879) by rotating them in the presence of the antibody for 30 minutes at room temperature. Beads were washed three times with PBS (1 ml). They were further incubated with hDelta1-hIgG4 (see Example 1 above) for 2 hours at room temperature and then washed three times with PBS (1 ml).
Human peripheral blood mononuclear cells (PBMC) were purified from blood using Ficoll-Paque separation medium (Pharmacia). Briefly, 28 ml of blood were overlaid on 21 ml of Ficoll-Paque separation medium and centrifuged at 18-20° C. for 40 minutes at 400 g. PBMC were recovered from the interface and washed 3 times before use for CD4+ T cell purification.
The CD4+ T cells were incubated in triplicates in a 96-well-plate (flat bottom) at 10^5 CD4/well/200 μl in RPMI medium containing 10% FCS, glutamine, penicillin, streptomycin and β2-mercaptoethanol.
Cytokine production was induced by stimulating the cells with anti-CD3/CD28 T cell expander beads from Dynal at a 1:1 ratio (bead/cell) in the presence of beads coated with hDelta1-IgG4Fc fusion protein (Example 1 above) at a 5:1 ratio (beads/cell). In some wells, increasing amounts of soluble hdelta1-IgG4Fc fusion protein were also added.
(§1) The supernatants were removed after 3 days of incubation at 37° C./5% CO2/humidified atmosphere and cytokine production was evaluated by ELISA using Pharmingen kits OptEIA Set human IL10 (catalog No. 555157), OptEIA Set human IL-5 (catalog No. 555202) for IL-10 and IL-5 respectively according to the manufacturer's instructions.
Human peripheral blood mononuclear cells (PBMC) were purified from blood using Ficoll-Paque separation medium (Pharmacia). […]
as §1, with “(Catalog” for “(catalog”, “instructions. […]” for “instructions.”

B1: rat Notch1-hIgG1Fc: R&D Systems Catalog No 1057-TK; 12 amino terminal EGF domains of rat Notch-1 fused to the Fc region of human IgG (protein)
chain: ARGLRCSQPSGTCLNGGRCEVANGTEACVCSGAFVGQRCQDPSPCLSTPCKNAGTCYVVDHGGIVDYACSCPLGFSGPLCLTPLANACLANPCRNGGTCDLLTLTEYKCRCPPGWSGKSCQQADPCASNPCANGGQCLPFESSYICGCPPGFHGPTCRQDVNECSQNPGLCRHGGTCHNEIGSYRCACRATHTGPHCELPYVPCSPSPCQNGGTCRPTGDTTHECACLPGFAGQNCEENVDDCPGNNCKNGGACVDGVNTYNCRCPPEWTGQYCTEDVDECQLMPNACQNGGTCHNSHGGYNCVCVNGWTGEDCSENIDDCASAACFQGATCHDRVASFYCECPHGRTGLLCHLNDACISNPCNEGSNCDTNPVNGKAICTCPSGYTGPACSQDVDECALGANPCEHAGKCLNTLGSFECQCLQGYTGPRCEIDVNECISNPCQNDATCLDQIGEFQCICMPGYEGVYCEIEGRMD
modifications: left off: a dimerising Fc or GST
notes: R&D Systems Catalog No 1057-TK; 12 amino terminal EGF domains of rat Notch-1 fused to the Fc region of human IgG
effect of added soluble protein on the IL-10 enhancement by bead-immobilised Delta1: inhibited
